The numbers were not newly measured in paper PMC4388261, which cites them from elsewhere.

This data set has as its target Glu35 (UniProt position 53, CAAKFESNFNT). The settings on record: not stated (wild-type HEWL; the literature range pools several studies).

For the substance “Hen egg-white lysozyme (HEWL, lysozyme C) (Gallus gallus)”, the pKa was 6.0–6.8.
